Data reported in patent US20050187147A1 (published 2005).
One block for each binder: values may come before it. Square brackets hold non-standard residues; d marks the D form. Primed or numbered codes have the meaning given here. * marks the point of attachment. 10Ca = carbamate linkage conjugating the peptide-PEG to paclitaxel at C10; ALK(6) = not defined here; 10Es = not defined here; Cbz = O=C(OCc1ccccc1)*; PEG(13) = PEG13 linker; Piv = CC(C)(C)C(=O)*; OBn = c1ccc(CO*)cc1; PXL = paclitaxel

Biological target: Human Src kinase (Upstate #14-326) (human, UniProt P12931 1-536)
Assay: cell-based or functional assay

B2: Ac-E(Bzl)YIYGSFK(CBz)-PEG(13)-10Ca-PXL (peptide)
peptide: Ac-E(OBn)YIYGSFK(Cbz)-{PEG(13)-10Ca-PXL}
- Average src kinase activity: 0 % of parent peptide activity

B3: Ac-EYIyGSFK-PEG(13)-10Ca-PXL (peptide)
peptide: Ac-EYI[dY]GSFK-{PEG(13)-10Ca-PXL}
- Average src kinase activity: 0 % of parent peptide activity

B5: Ac-EYIFGSFK-PEG(13)-10Ca-PXL (peptide)
peptide: Ac-EYIFGSFK-{PEG(13)-10Ca-PXL}
- Average src kinase activity: 0 % of parent peptide activity

Now from value to binder:

- Average src kinase activity: 0 % of parent peptide activity
B1: CBz-YIYGSFK(CBz)-ALK(6)-10Es-PXL (peptide)
peptide: Cbz-YIYGSFK(Cbz)-{ALK(6)-10Es-PXL}
modifications: reading uncertain

- Average src kinase activity: 0 % of parent peptide activity
B4: Pv-YIFGSFR-PEG(13)-10Ca-PXL (peptide)
peptide: Piv-YIFGSFR-{PEG(13)-10Ca-PXL}
